# According to patent US20130225503A1, “TEX14 PEPTIDES AS NOVEL ANTITUMOR AGENTS” (Baylor Licnensing Group, priority 2009, published 2013):
# T1: CEP55 (C1) hinge region (Mus musculus, UniProt Q8BT07)
# T1 construct: an 80-amino-acid fragment of CEP55 (C1) that contains the hinge region; expressed in transfected cells; host or cells: yeast (Matchmaker Two-Hybrid System 3, Clontech)
# T1 sequence (Q8BT07 157-235 limits assumed): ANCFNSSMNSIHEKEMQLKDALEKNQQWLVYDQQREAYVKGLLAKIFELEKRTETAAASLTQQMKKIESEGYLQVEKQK
# B1: full-length mouse TEX14 (other, UniProt Q7M6U3 1-1450, looked up)
# chain: MSRGAPFPVPCPVLLGTFTDDSLEAQLHEYAKQGNCVKLKKILKKGVCVDAVNTQGQSALFVAALLGHVKLVDVLVDYGSDPNHRCFDGSTPVHAAAFSGNQWILSKLLTAGGDLRLHDEKGRNPQAWALTAGKDRSTQMVEFMQRCTSHMKAIIQGFSYDLLKKIDSPQRLIGSPPWFGSLIQGSPNSSPNRQLKPGIISAQNIYSFGFGKFYLTSGMQLTYPGSLPVIGEKEVVQADDEPTFSFFSGPYMVMTNLVWNRSRVTVKELNLPTRPHCSRLRLADLLIAEQEHSSNLRHPNLLQLMAVCLSRDLEKIRLVYERITVGTLFSVLHERRSQFPVLHMEVIVHLLLQVADALIYLHSRGFIHRSLSSYAVHIVSAGEARLTNLEYLTESQDSGAHRNVTRMPLPTQLYNWAAPEVVLQKAATVKSDIYSFSVIIQEILTDSIPWNGLDGSLVKETIALGNYLEADVRLPEPYYDIVKSGIHAKQKNRTMNLQDIRYILKNDLKEFIGAQKTQPTESPRGQSYEPHPDVNICLGLTSEYQKDPPDLDIKELKEMGSQPHSPTDHSFLTVKPTLAPQTLDSSLSAQKPDNANVPSPPAACLAEEVRSPTASQDSLCSFEINEIYSGCLTLGTDKEEECLGTAASPEGDRPNQGDELPSLEEELDKMERELHCFCEEDKSISEVDTDLLFEDDDWQSDSLGSLNLPEPTREAKGKTSSWSKTDEYVSKCVLNLKISQVMMQQSAEWLRKLEQEVEELEWAQKELDSQCSSLRDASLKFANAKFQPAVGPPSLAYLPPVMQLPGLKQPENGGTWLTLARSPGNEREFQEGHFSKKPEKLSACGWKPFTQVSEESRGDCSELNNQLPTLRGPGKQSTGEQLPSTQEARESLEKNTNQNSRSMASVSSEIYATKSRNNEDNGEAHLKWRLAVKEMAEKAVSGQLLLPPWNPQSSAPFESKVENESTPLPRPPIRGPESTEWQHILEYQRENDEPKGNTKFGKMDNSDCDKNKHSRWTGLQRFTGIRYPFFRNHEQPEQNEASQASCDTSVGTEKFYSTSSPIGDDFERFQDSFAQRQGYVEENFQIREIFEKNAEILTKPQFQAIQCAEDKQDETLGETPKELKEKNTSLTDIQDLSSITYDQDGYFKETSYKTPKLKHAPTSASTPLSPESISSAASHYEDCLENTTFHVKRGSTFCWNGQEAMRTLSAKFTTVRERAKSLESLLASSKSLPAKLTDSKRLCMLSETGSSNVSAAFVTSTHATKRKSLPRELAEATSQQHLDELPPPAQELLDEIEQLKQQQVSSLASHENTARDLSVTNKDKKHLEEQETNSSKDSSFLSSREIQDLEDTERAHSSLDEDLERFLQSPEENTALLDPTKGSTREKKNKDQDVVEQKRKKKESIKPERRESDSSLGTLEEDELKPCFWKRLGWSEPSRIIVLDQSDLSD
# notes: whole, on cells; In the yeast two-hybrid assay it stood as a fusion with a GAL4 domain (pGBKT7 bait or pGADT7 prey vector)
# What was measured:
# CEP55 (C1) hinge region = molecular target: T1, CEP55 (C1) hinge region; assay: Yeast two-hybrid assay of truncated TEX14 with the CEP55 hinge fragment C1; format: binding; settings: 80-amino-acid fragment of CEP55 containing the hinge region; FIG. 3A to C
# Protocol: (§1) Protein-protein interactions were evaluated by using the Matchmaker Two-Hybrid System 3 (Clontech) as described previously (10). Mouse full-length TEX14 and MLKP1 were previously subcloned into the Matchmaker GAL4 two-hybrid pGBKT7 and pGADT7 vectors (10). The constructs of full-length mouse and human CEP55, human TEX14, truncated mouse CEP55-C1, and truncated mouse TEX14-T1, T2, T1[…]T2, T3, T4, and T4-C were made by using the Matchmaker GAL4 two-hybrid pGBKT7 bait vector and pGADT7 prey vectors. Some Y2H interactions were examined with an oxygen biosensor assay (Clontech PT3584-1) that measured the fluorescence emitted by an oxygen-sensing platform that detects GAL4.
# To determine the relevance of this GPPX3Y motif as it relates to the interaction of TEX14 with CEP55, we performed yeast two-hybrid assays with mouse TEX14 amino acids 756 to 815 that contain the GPPX3Y motif (FIG. 3A). These 60 amino acids interacted with full-length CEP55 (FIGS. 3B and C). Conversely, an 80-amino-acid fragment of CEP55 (C1) that contains the hinge region interacted with full-length TEX14, the C terminus (T3), and GPPX3Y-containing fragment (T4) but not a shorter sequence that lacked the GPPX3Y motif (T4-C) (FIG. 3A to C). Thus, similar GPPX3Y-containing regions of TEX14, ALIX, and TSG101 interact with the hinge region of CEP55.
# [1] = molecular target: the molecule itself; assay: yeast two-hybrid, full-length proteins, oxygen biosensor and selection plates
# Protocol: (A) Immunoprecipitation (IP) of FLAG-TEX14 and/or MYC-CEP55 from HEK293T cells, followed by Western blot analysis with the antibodies as shown. Immunoprecipitation of protein G (lanes G) is the control. (B) Yeast two-hybrid analyses using vectors encoding full-length mouse TEX14, MKLP1, CEP55, and positive and negative controls. The relative ratios of TEX14-TEX14, TEX14-MKLP1, and TEX14-CEP55 interactions were determined by using an oxygen-biosensor system. (C) Yeast two-hybrid interactions of mouse and human full-length TEX14 and CEP55. (a) Yeast were stably transformed with vectors and plated for yeast two-hybrid analysis as depicted. SV40 T antigen with p53 and SV40 T antigen with lamin C were used as positive and negative controls, respectively. (b) Interactions between the two-hybrid proteins are evident by colony growth and blue color on selection plates.
# as §1
# Since both CEP55 and TEX14 interact with MKLP1 (10, 22), it was determined whether CEP55 and TEX14 are components of the intercellular bridge as direct or indirect interactors. The inventors first overexpressed full-length FLAG-TEX14 and MYC-CEP55 constructs in HEK293T cells (FIG. 2A). […] Likewise, when the inventors immunoprecipitate with anti-MYC antibody, they immunoprecipitate both MYC-CEP55 and FLAG-TEX14.
Molecule,yeast two-hybrid interaction with CEP55 fragment C1 (CEP55 (C1) hinge region),binding result [1]
"T4: GPPX3Y-containing fragment of mouse TEX14, amino acids 756 to 815 (EVEELEWAQKELDSQCSSLRDASLKFANAKFQPAVGPPSLAYLPPVMQLPGLKQPENGGT; UniProt Q7M6U3 756-815, looked up, fragment)",interacted,
B1,,binds
